Measured values from patent publication US20210403602A1 (Bristol-Myers Squibb, published 2021).

Tests used:
[1] = target: T1, denatured recombinant human IDO protein with a 6-His tag and thrombin site linker (His-Tb-IDO) (human, UniProt P14902 1-403); test: direct ELISA of hybridoma supernatants on plates coated with denatured His-Tb-IDO at 2 ug/mL
T1 construct: Immunogen and ELISA coating antigen, used in denatured form; also called denatured tagged antigen
Experimental: After eleven days, hybridoma culture supernatants were collected and screened by direct ELISA for specific binding to denatured His-Tb-IDO. Briefly, 96-well polystyrene microplates (Corning 9018) were coated overnight at 4C with 60 uL of denatured tagged antigen at 2 ug/mL in PBS. The plates were blocked with 200 uL/well of assay buffer containing 0.5% bovine serum albumin in PBS and washed. After the blocking step, 100 uL of supernatant from individual hybridoma culture wells were added and incubated for one hour on a plate shaker at room temperature. The plates were washed three times with PBS and 100 ul of F(ab′)₂ fragment goat anti-mouse IgG Fcγ (1:1000 dilution) (Jackson ImmunoResearch 115-036-071) was added and incubated for 1 hour at RT and washed again with PBS. The plates were then developed with 100 ul/well of ABTS HRP substrate (Surmodics ABTS-1000-01) for 5 to 10 minutes, and analyzed using a PerkinElmer EnVision microplate reader at 405 nm. The data was analyzed using TIBCO Spotfire.

[2] = target: T2, human Indoleamine 2,3-dioxygenase (IDO) in fixed cells and tissues (human, UniProt P14902 1-403); test: immunohistochemistry on FFPE H1048 cells and cervical SCC tissue, HALO image analysis; antibody concentration printed on the sheet as 0.5 ug/ml, given in the legend as 0.05 ug/ml
T2 construct: also called IDO1; human IDO
Experimental: To further develop a user and clinical friendly assay, mAb 1E7 was optimized for automated IHC using the Leica BondRX platform. The Bond Polymer Refine Detection System (Leica, catalog #DS9800) was used for the detection of IDO1 and all incubations were carried out at room temperature. Briefly, slides were deparaffinized and rehydrated following routine histology procedures. The slides were loaded onto the Leica BondRX automated IHC stainer and antigen retrieved with either the Bond Epitope Retrieval Solution 1 (Leica, catalog #AR9961) or 2 (Leica, catalog #AR9640) for 20 minutes at 95° C. Peroxidase block from the Bond Polymer Refine Detection kit (Leica, catalog #DS9800) was applied to the slides for 10 min, followed by non-specific binding blocking using protein block (Agilent-DAKO, catalog #X0909) supplemented with 0.5% human gamma globulins (Sigma, catalog #G-4386) for 20 min. Primary antibody 1E7 was incubated at 0.03 or 0.05 μg/ml for 60 minutes, and followed by rabbit anti-mouse linker and then anti-rabbit Poly-HRP-IgG from the Bond Polymer Refine Detection Kit for 30 min each step. […] Whole slide digital images of stained slides were captured and viewed using Aperio AT2 ScanScope and e-Slide Manager (Leica), and then analyzed by a pathologist for manual score or with Halo software (Indica) for quantitative image analysis.

T2 sequence (P14902 whole entry): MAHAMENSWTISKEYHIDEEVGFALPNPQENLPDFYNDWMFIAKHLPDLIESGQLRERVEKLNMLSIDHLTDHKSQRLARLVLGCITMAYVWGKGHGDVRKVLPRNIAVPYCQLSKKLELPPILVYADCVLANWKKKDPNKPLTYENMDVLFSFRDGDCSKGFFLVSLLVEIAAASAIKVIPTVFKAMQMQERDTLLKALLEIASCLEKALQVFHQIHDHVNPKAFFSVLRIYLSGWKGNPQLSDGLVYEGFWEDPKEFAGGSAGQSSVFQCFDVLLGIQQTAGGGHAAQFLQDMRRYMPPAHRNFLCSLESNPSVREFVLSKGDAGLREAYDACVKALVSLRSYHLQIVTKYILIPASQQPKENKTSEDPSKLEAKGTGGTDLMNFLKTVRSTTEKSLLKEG
T1 sequence (P14902 other isoform, or with tags, fused parts or gaps limits assumed): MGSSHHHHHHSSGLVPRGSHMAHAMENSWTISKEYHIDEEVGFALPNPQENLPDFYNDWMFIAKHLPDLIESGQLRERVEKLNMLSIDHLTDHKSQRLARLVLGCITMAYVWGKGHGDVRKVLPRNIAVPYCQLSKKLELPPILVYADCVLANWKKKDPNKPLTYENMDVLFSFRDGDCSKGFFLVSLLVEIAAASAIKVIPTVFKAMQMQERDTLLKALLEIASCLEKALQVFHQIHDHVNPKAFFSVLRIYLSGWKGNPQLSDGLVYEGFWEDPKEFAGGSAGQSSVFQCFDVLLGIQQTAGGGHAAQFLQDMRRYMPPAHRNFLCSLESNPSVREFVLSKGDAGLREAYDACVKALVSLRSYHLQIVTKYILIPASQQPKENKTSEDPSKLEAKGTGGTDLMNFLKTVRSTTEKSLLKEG

binding result [1]: binds
binding result [2]: binds
B1: anti-IDO monoclonal antibody 1E7 (antibody, mouse IgG1, kappa, V domains shown)
VH: QVQLQQSGAELAKPGASVKMSCKTSGYTFTSYWMHWVKQRPGQGLEWIGYINPTTGYTDCNQKFKDKATLTADKSSNTAYLQLSSLTSEDSAVYYCARSAMFGRGWGQGTTLTVSS
VL: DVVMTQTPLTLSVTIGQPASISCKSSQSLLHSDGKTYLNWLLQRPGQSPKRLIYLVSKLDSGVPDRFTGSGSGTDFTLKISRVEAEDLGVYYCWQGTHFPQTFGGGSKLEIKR
notes: also called mAb 1E7; IDO mAb 1E7
